Here are results for two sequences from article PMC12022260.

The series deals with T1, His-FleQ (Azotobacter vinelandii AEIV) (UniProt C1DQF1).
T1 sequence: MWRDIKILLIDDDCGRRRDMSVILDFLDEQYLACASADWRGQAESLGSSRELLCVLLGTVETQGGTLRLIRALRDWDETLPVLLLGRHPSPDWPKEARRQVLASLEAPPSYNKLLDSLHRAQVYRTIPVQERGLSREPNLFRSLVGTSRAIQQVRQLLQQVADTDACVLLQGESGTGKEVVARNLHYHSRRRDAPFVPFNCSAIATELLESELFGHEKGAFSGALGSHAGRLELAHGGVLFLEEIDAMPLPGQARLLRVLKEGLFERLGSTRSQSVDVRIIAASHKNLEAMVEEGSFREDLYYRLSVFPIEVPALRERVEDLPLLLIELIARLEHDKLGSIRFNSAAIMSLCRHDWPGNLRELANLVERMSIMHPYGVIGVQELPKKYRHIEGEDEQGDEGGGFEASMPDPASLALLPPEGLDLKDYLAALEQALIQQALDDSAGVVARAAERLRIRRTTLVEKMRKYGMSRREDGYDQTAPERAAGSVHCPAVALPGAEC
Description: EMSA. The conditions noted are these: 10 mM Tris pH 8, 8 mM Mg acetate, 50 mM KCl, 10 ug/ml BSA, 5% glycerol; 100 ng DNA in 20 ul; room temperature 20 min; 6% native acrylamide gel, 0.5x-1x TBE ….

Consider “CCGAAAATGCTGATACGCATTGCGTTCACCTCGTCCTTATTTAACGAAAAGTCGACGACTAAAACCCTTGGTCGTCACATTGCCGGCGGCCTTCAAGGGAAATTTGCAGGCCGAATTATAGTCAATAAAATGTCGTGCCAAATGAGCTGGCGTTAAAAGGCAGGTTGCAAGGGATGCTTTATAACTGCTCAAGCGATCCATGTTCG (double strand) [algD proximal region]”, for which the binding result is “binds”.
As for “GCGAATTCGGACGCCGCGAGTAAAACGAAAAAGCAAGCCGCCTGAACCCACACTTGCGCTCCCGGCGTTTTGTACCATGCTTTTCCTGAATCATTGTGCTAAGGAGAAAAGTATGAATAAAAGAGGAGCGTTGTTGAGCCTGCTGGATCCAGG (double strand) [yebF regulatory region]”, the binding entry was “no binding”.
